Data taken from US20230030529A1 (NORDIC BIOSCIENCE A S, published 2023).
Ends that are not written are not given here. * marks the point of attachment. Biotin = O=C1N[C@H]2[C@H](CS[C@H]2CCCCC(=O)*)N1

B1: Truncated peptide GNTGPTGAV (peptide)
peptide: GNTGPTGAV
B2: Selection peptide MGNTGPTGAV (peptide)
peptide: MGNTGPTGAV
notes: also called target peptide
B3: Deselection peptide 3 QGNTGPTGAV (peptide)
peptide: QGNTGPTGAV
notes: also called Deselection 3
B4: Deselection peptide 1 MGQTGPTGAV (peptide)
peptide: MGQTGPTGAV
notes: also called Deselection 1
B5: Non-sense selection peptide LLARDFEKNY (peptide)
peptide: LLARDFEKNY
B6: C4-aa^1355 monoclonal antibody (antibody, V domains shown)
VH: QVTLKESGPGILQPSQTLSLTCSFSGFSLTTYNIGVGWIRQSSGKGLEWLAHIWYNDIKYYNTALKSRLTISKDTSNNQVFLKIASVVTADTATYYCARLRPDSFDYWGQGTTLTVSS
VL: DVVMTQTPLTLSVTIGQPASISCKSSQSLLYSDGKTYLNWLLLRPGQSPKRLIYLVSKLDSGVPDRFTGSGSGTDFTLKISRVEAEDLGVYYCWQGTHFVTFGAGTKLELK
notes: It was SULFO-TAG labelled in the ECLIA; also called the monoclonal antibody
B7: Elongated peptide FMGNTGPTGAV (peptide)
peptide: FMGNTGPTGAV

What was measured:
[1] = target: B6; test: competitive C4-aa^1355 ECLIA (peptide in solution against the biotinylated coating peptide)
Protocol: The target sequence was used as the selection peptide ([…] (SEQ ID No. 1)). The immunogenic peptide ([…]-GGC-KLH) was generated by covalently linking the selection peptide to Keyhole Limpet Hemocyanin (KLH) carrier protein with addition of glycine and cysteine residues in between to ensure right linking. A biotinylated peptide ([…]-K-biotin) was used as a coating peptide. The specificity of the antibody was tested by including an elongated peptide ([…] (SEQ ID No. 7)), a truncated peptide ([…] (SEQ ID No. 3)), a non-sense selection peptide ([…] (SEQ ID No. 18)) and a non-sense coating peptide ([…]-K-biotin). To test for potential cross-reactivity to other ECM proteins with similar sequences, three peptides with one amino acid mismatch at either position one ([…] (SEQ ID No. 6)), three ([…] (SEQ ID No. 4)) or four ([…] (SEQ ID No. 5)) from the N-terminal were included in the specificity test. Antibody specificity was calculated as percentage of signal inhibition of two-fold diluted peptides.
During assay development, an optimal incubation buffer, time, temperature and concentrations of antibody and coating peptide were determined and the finalized competitive C4-aa¹³⁵⁵ ECLIA protocol was as follows: A MSD GOLD 96-well streptavidin pre-coated plate (Meso Scale Discovery, cat. no. L15SA-1) was incubated with 150 μl/well blocking buffer (10 mM phosphate-buffered saline (PBS) with bovine serum albumin (BSA) (5% w/v) and bronidox (0.36% v/v), 8 g/L NaCl, pH 7.4) for 60 minutes at 20° C. with shaking (300 rpm) in darkness. The plate was coated with 25 μl/well biotinylated coating peptide dissolved in assay buffer (50 mM PBS with BSA (1% w/v), Tween-20 (0.1% w/v) and bronidox (0.36% v/v), 8 g/L NaCl, pH 7.4) to a concentration at 2 ng/ml and incubated for 60 minutes at 20° C. with shaking (750 rpm) in darkness. Next, 25 μl/well selection peptide, assay controls or pre-diluted serum/plasma sample (1:2) were added followed by immediately addition of 25 μl/well of SULFO-TAG (MSD GOLD SULFO-TAG NHS-Ester Conjugation, Meso Scale Discovery, cat. no. R31AA-1) labelled monoclonal antibody diluted in assay buffer to a final concentration at 25 ng/ml and the plate incubated 20 hours at 4° C. with shaking (300 rpm) in darkness.

[2] = target: B6; test: competitive C4-aa^1355 ECLIA, peptide in solution against the biotinylated coating peptide
Protocol: (§1) During assay development, an optimal incubation buffer, time, temperature and concentrations of antibody and coating peptide were determined and the finalized competitive C4-aa¹³⁵⁵ ECLIA protocol was as follows: A MSD GOLD 96-well streptavidin pre-coated plate (Meso Scale Discovery, cat. no. L15SA-1) was incubated with 150 μl/well blocking buffer (10 mM phosphate-buffered saline (PBS) with bovine serum albumin (BSA) (5% w/v) and bronidox (0.36% v/v), 8 g/L NaCl, pH 7.4) for 60 minutes at 20° C. with shaking (300 rpm) in darkness. The plate was coated with 25 μl/well biotinylated coating peptide dissolved in assay buffer (50 mM PBS with BSA (1% w/v), Tween-20 (0.1% w/v) and bronidox (0.36% v/v), 8 g/L NaCl, pH 7.4) to a concentration at 2 ng/ml and incubated for 60 minutes at 20° C. with shaking (750 rpm) in darkness. […] Finally, 150 μl/well of MSD GOLD Read Buffer (Meso Scale Discovery, cat. no. R92TG-2) was added and the plate was read immediately within 2 minutes in a Sector Imager 6000 (Meso Scale Discovery). SULFO-TAG enabled light emission when electricity was applied, and the light emission data was analyzed using the MSD Discovery Workbench 4.0 software. The analyte concentration was calculated using a 4-parametric curve fit model.
Target sequence in this assay (VL, as listed by the source): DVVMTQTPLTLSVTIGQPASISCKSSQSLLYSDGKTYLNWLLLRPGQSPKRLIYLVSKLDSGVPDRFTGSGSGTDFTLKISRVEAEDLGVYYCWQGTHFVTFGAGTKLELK

[3] = target: T1, Non-sense coating peptide LLARDFEKNY-K-biotin; test: ECLIA with the non-sense coating peptide on the streptavidin plate
T1 construct: also called non-sense biotinylated peptide
T1 peptide: LLARDFEKNYK(Biotin)
Protocol: The target sequence was used as the selection peptide ([…] (SEQ ID No. 1)). The immunogenic peptide ([…]-GGC-KLH) was generated by covalently linking the selection peptide to Keyhole Limpet Hemocyanin (KLH) carrier protein with addition of glycine and cysteine residues in between to ensure right linking. A biotinylated peptide ([…]-K-biotin) was used as a coating peptide. The specificity of the antibody was tested by including an elongated peptide ([…] (SEQ ID No. 7)), a truncated peptide ([…] (SEQ ID No. 3)), a non-sense selection peptide ([…] (SEQ ID No. 18)) and a non-sense coating peptide ([…]-K-biotin). […] Antibody specificity was calculated as percentage of signal inhibition of two-fold diluted peptides.
During assay development, an optimal incubation buffer, time, temperature and concentrations of antibody and coating peptide were determined and the finalized competitive C4-aa¹³⁵⁵ ECLIA protocol was as follows: A MSD GOLD 96-well streptavidin pre-coated plate (Meso Scale Discovery, cat. no. L15SA-1) was incubated with 150 μl/well blocking buffer (10 mM phosphate-buffered saline (PBS) with bovine serum albumin (BSA) (5% w/v) and bronidox (0.36% v/v), 8 g/L NaCl, pH 7.4) for 60 minutes at 20° C. with shaking (300 rpm) in darkness. […]

[4] = target: T2, Recombinant type IV collagen alpha2 chain, undigested (without protease) (UniProt P08572 184-1712); test: competitive C4-aa^1355 ECLIA on the collagen sample
T2 construct: Bought recombinant protein; also called non-digested type IV collagen; type IV collagen α2 chain
Protocol: as §1, with “darkness.” for “darkness. The plate was coated with 25 μl/well biotinylated coating peptide dissolved in assay buffer (50 mM PBS with BSA (1% w/v), Tween-20 (0.1% w/v) and bronidox (0.36% v/v), 8 g/L NaCl, pH 7.4) to a concentration at 2 ng/ml and incubated for 60 minutes at 20° C. with shaking (750 rpm) in darkness.”
To confirm that the C4-aa¹³⁵⁵ antibody/assay recognized a protease generated type IV collagen neo-epitope, C4-aa¹³⁵⁵ was measured in non-digested, MMP-9 digested and GzB digested type IV collagen.

[5] = target: B2; test: preliminary competitive ELISA, biotinylated coating peptide on streptavidin plates
Protocol: Female Balb/C mice of 6-7 weeks of age were immunized subcutaneously with 200 μl emulsified antigen containing 100 μg immunogenic peptide ([…]-GGC-KLH) with Stimune Immunogenic adjuvant (Thermo fisher, cat. no. 7925000) repeatedly every second week until stable titer levels were obtained. The mouse with the highest antibody titer rested for four weeks and was then boosted intraperitoneally with immunogenic peptide. After three days, splenocytes were isolated and fused with murine SP2/0 myeloma cells to produce hybridoma cells as previously described (17). The hybridoma cells were cultured in 96-well microtiter plates and limited dilution was used to secure monoclonal growth. Supernatants from the monoclonal antibody producing hybridoma cells were screened for reactivity against the selection peptide and human serum samples in a preliminary competitive ELISA using biotinylated coating peptide on streptavidin-coated microtiter plates (Roche, cat. no. 11940279). The clone with the best reactivity towards the selection peptide was purified using protein-G-columns according to the manufacturer's instructions (GE Healthcare Life Sciences, cat. no. 17-0404-01).

T2 sequence (P08572 184-1712): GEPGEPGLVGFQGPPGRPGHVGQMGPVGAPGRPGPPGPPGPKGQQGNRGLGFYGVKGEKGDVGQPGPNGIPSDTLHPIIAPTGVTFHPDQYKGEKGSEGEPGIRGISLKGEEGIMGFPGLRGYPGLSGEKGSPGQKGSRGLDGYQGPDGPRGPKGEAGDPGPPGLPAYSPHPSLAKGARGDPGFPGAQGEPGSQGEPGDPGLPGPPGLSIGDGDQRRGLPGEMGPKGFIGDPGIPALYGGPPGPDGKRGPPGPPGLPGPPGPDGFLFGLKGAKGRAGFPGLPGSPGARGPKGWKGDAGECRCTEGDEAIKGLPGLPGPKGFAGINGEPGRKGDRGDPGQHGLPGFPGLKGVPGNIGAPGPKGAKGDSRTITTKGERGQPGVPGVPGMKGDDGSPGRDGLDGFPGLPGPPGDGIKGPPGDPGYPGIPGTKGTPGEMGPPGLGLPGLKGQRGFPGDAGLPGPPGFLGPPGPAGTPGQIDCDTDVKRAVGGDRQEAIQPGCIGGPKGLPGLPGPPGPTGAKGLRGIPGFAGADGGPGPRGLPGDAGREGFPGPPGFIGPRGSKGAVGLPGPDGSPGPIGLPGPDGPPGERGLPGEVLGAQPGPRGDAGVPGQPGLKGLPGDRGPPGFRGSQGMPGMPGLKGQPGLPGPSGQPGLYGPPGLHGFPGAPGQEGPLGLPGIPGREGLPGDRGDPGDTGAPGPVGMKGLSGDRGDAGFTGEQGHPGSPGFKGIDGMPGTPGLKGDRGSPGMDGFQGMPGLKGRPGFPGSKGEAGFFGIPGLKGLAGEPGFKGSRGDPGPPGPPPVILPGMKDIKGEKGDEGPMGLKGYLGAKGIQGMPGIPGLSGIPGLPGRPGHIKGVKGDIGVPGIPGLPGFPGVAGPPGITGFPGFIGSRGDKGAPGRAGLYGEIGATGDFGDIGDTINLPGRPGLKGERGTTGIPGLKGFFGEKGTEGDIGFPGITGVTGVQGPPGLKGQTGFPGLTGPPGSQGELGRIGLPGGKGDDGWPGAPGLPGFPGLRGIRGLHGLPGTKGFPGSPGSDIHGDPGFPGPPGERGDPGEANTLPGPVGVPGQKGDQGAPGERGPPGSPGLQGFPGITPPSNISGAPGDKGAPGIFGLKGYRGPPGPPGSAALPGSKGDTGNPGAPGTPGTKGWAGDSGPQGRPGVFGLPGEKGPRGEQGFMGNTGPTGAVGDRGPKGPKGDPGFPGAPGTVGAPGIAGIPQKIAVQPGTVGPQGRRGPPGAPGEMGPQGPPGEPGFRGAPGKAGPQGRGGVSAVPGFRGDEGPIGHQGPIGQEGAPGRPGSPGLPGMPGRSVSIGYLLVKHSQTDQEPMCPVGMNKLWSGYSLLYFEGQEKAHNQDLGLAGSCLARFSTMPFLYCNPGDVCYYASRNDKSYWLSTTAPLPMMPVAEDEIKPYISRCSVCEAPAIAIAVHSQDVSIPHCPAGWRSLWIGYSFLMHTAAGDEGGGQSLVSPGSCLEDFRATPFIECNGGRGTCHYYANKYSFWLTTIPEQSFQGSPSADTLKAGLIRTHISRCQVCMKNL

Binder	binding result [1]	other results
B1	no binding	–
B2	–	binding result [2]: binds
B3	no binding (tested: 0-30 ng/ml)	–
B4	no binding (tested: 0-30 ng/ml)	–
B5	no binding	–
B6	–	binding result [3]: no binding; binding result [4]: no binding; binding result [5]: binds
B7	no binding	–
